Blank lines part the entries; values can stand above or below the binder they belong to.
Key:
[1] = target: T1, human CD38 protein (human, UniProt P28907 43-300); test: ELISA, plate coated with human CD38 protein, absorbance at 650 nm
T1 sequence (looked up): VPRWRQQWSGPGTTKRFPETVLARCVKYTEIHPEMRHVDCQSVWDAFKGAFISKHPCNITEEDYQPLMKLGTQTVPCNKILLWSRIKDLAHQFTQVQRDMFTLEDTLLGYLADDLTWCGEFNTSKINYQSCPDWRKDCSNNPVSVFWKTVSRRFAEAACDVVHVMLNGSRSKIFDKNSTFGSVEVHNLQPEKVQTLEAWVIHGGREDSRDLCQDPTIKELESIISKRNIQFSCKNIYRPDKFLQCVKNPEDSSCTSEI
Description: Binding of the humanized antibody to human CD38 was tested. The ELISA plate was coated with 0.1 mg/well of human CD38 protein. 1t antibody (humanized anti-aNKp46 antibody or humanized anti-CD38 antibody) was added at 0.1 mg/well. Secondary antibody was diluted 1:7500. After addition of Streptavidin-HRP and TMB substrate the optical absorbance was measured at 650 nm.

[2] = target: T2, human CD38 expressed on multiple myeloma cells (KMS11, MM1.S) (human, UniProt P28907 1-300); test: flow cytometry on MM.1S wt cells
T2 construct: whole, on cells; Naturally expressed on KMS11 and MM1.S cell lines; a CD38 knock out MM.1S line served as negative control
T2 sequence (looked up): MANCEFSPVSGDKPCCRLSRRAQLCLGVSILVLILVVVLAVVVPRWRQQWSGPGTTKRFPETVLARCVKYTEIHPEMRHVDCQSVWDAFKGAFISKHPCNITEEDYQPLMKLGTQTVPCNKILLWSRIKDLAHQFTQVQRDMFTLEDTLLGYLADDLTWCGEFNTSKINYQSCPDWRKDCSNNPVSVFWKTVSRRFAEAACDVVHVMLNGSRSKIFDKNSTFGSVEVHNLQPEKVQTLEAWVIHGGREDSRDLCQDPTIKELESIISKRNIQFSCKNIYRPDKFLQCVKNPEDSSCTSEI

[3] = target: T2, human CD38 expressed on multiple …; test: flow cytometry on KMS11 wt cells

binding result [1]: binds
B1: humanized anti-CD38 antibody (antibody, V domains shown)
VH: QVQLVQSGAEVKKPGASVKVSCKASGYTFTSYWMQWVRQAPGQGLEWMGAIYPGDGDTRYTQKFKGRVTMTRDTSTSTVYMELSSLRSEDTAVYYCARERTTGAPRYFDVWGQGTLVTVSS
VL: DIQMTQSPSSLSASVGDRVTITCRASENIYSFLAWYQQKPGKAPKLLIYNTKTLTEGVPSRFSGSGSGTDFTLTISSLQPEDFATYYCQHHYGIPLTFGGGTKVEIK
notes: also called CD38-IgG1 L234A, L235A; CD38-IgG1 wildtype

EC50 (read off the curve) [2]: ~0.3 µg/mL | EC50 (read off the curve) [3]: ~0.2 µg/mL
B2: NKE2 with wild type (WT) Fc (bispecific antibody, human IgG1, kappa)
heavy: not shown
light 1: DIVMTQSPATLSLSPGERATLSCRASQSISDYLHWFQQKPHESPRLLIKYASQSISGIPARFSGSGSGSDFTLTISSLEPEDFAVYYCQNGHSFPLTFGPGTKVDIKRTVAAPAVFIFPPSDEQLKSGTASVVCLLKNFYPREAKVQWKVDNALQSGNSQESVTEQDSKDSTYSLSSTLTLSKADYEKHKVYACEVTHQGLSSPVTKSFNRGEC
light 2: DIQMTQSPSSLSASVGDRVTITCRASENIYSFLAWYQQKPGKAPKLLIYNTKTLTEGVPSRFSGSGSGTDFTLTISSLQPEDFATYYCQHHYGIPLTFGGGTKVEIKRTVAAPSVFIFPPSDEQLKSGTASVVCLLNNFYPREAKVQWKVDNALQSGNSQESVTEQDSKDSTYSLSSTLTLSKADYEKHKVYACEVTHQGLSSPVTKSFNRGEC
notes: Tetravalent IgG1-like tandem-Fab molecule: anti-CD38 Fab, linker, humanized 09 anti-NKp46 Fab, hinge, IgG1 Fc; also called NKE2 WT; NKE2 WT-Fc

EC50 (read off the curve) [2]: ~0.3 µg/mL | EC50 (read off the curve) [3]: ~0.2 µg/mL
B3: NKE2 with mutant null Fc (bispecific antibody, human IgG1, kappa, L234A L235A)
heavy: not shown
light 1: B2 light 1
light 2: B2 light 2
notes: As NKE2 WT but with IgG1 L234A/L235A Fc; also called NKE2 Mut Fc (Fc silent); NKE2 MUT
